In patent EP4806514A2 (Lepu Biopharma Co., Ltd., dated 2025):

Tests used:
Test in all cases: ELISA, antigen coated at 1 ug/mL
[1] = biological target: T1, human CDH16 protein (hCDH16-his, Novoprotein, Cat. No. CJ16) (human, UniProt O75309 19-786)
T1 construct: Bought; also called human CDH16-his
T1 sequence (looked up): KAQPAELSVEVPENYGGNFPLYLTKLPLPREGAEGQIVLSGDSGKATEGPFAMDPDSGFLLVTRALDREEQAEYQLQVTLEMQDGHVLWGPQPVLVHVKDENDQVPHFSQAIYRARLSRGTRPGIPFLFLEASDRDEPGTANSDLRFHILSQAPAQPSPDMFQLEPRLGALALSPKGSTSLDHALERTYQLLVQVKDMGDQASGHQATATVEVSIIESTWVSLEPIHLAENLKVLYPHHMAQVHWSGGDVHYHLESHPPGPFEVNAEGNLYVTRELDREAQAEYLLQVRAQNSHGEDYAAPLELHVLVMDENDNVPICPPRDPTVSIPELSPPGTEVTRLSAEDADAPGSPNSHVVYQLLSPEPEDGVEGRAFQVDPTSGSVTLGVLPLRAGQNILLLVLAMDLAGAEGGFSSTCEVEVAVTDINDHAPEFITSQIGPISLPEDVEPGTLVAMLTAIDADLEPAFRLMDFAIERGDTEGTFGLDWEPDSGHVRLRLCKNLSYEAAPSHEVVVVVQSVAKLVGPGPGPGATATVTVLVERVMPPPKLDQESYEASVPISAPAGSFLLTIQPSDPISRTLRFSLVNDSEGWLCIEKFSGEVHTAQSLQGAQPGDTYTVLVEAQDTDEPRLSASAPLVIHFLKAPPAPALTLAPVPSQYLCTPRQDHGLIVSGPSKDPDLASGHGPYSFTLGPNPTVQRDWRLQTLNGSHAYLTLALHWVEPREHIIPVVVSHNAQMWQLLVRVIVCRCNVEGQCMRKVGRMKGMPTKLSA

[2] = biological target: T2, human CDH9-his (Acro bio, Cat. No. CA9-H52H6) (human, UniProt Q9ULB4 54-615)
T2 construct: Bought; also called human CDH9 protein
T2 sequence (looked up): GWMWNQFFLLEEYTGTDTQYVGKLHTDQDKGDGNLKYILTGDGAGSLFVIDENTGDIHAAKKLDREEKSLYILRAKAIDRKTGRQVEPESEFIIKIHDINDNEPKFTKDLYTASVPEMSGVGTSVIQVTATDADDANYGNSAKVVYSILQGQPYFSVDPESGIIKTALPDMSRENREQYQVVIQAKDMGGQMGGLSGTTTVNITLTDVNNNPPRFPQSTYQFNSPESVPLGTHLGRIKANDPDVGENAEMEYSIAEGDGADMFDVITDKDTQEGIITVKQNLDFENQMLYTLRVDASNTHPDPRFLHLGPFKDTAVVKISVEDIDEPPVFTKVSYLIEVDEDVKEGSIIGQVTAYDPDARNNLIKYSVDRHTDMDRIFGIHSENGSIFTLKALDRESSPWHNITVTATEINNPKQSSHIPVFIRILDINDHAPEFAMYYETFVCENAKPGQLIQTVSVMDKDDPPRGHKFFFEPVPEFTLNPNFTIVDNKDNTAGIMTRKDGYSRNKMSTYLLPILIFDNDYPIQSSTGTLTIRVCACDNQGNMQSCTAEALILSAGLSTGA

[3] = biological target: T3, human CDH10-his protein (Acro bio, Cat. No. CA0-H52H5) (human, UniProt Q9Y6N8 55-613)
T3 construct: Bought; also called human CDH10 protein
T3 sequence (looked up): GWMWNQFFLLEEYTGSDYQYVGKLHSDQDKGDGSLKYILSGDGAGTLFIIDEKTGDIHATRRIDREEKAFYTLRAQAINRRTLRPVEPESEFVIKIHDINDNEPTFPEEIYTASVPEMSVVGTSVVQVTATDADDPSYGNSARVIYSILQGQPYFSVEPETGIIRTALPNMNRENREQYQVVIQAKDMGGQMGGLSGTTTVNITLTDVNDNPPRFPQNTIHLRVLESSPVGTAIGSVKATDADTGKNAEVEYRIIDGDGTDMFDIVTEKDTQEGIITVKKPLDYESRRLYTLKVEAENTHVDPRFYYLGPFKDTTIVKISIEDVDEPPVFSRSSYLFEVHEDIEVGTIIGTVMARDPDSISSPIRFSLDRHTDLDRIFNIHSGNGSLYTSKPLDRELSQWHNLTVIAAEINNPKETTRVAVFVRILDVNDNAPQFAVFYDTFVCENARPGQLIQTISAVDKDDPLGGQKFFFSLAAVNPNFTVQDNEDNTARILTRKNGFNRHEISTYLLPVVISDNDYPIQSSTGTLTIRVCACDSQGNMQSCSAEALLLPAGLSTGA

[4] = biological target: T4, human CDH6-his protein (Katcus, Cat. No. CDH-HM106) (human, UniProt P55285 54-615, limits assumed)
T4 construct: Bought; also called human CDH6 protein
T4 sequence (looked up): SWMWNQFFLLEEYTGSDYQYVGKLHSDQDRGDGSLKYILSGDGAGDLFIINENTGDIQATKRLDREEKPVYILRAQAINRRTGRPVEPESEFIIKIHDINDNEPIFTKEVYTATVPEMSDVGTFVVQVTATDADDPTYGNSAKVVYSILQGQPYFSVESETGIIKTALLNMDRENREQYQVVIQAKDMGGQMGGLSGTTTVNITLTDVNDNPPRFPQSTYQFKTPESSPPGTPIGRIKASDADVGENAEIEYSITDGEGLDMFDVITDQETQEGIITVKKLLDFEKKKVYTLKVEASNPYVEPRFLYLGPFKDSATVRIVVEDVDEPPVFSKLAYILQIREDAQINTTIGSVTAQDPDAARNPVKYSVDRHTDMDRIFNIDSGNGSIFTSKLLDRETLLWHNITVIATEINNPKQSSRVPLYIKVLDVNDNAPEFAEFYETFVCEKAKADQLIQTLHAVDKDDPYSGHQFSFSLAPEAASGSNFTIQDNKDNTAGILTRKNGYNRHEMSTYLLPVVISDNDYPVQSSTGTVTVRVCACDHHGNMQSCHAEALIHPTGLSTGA

B1: 29H8D3-z12 (antibody, V domains shown)
VH: QVQLVQSGAEVKKPGASVKVSCKASGYTFTDHTIHWMRQRPGQGLEWIGYIYPRDGYTKYNEKFKDRATLTADTSTSTAYMELRSLRSDDTAVYYCARFYYGYWYFDVWGQGTTVTVSS
VL: DIVMTQSPLSLPVTPGEPASISCRSSKSLLRSNGNTYLYWFLQKPGQSPQVLIYRMSNLASGVPDRFSGSGSGTDFTLKISRVEAEDVGVYYCMQHLEYPFTFGQGTKLEIK
notes: Humanized, human IgG1 constant region; also called 29H8D3-z12 mAb
Question: Does B1 bind [1]?
Answer: no binding (tested: titrated from 50 nM)

Question: Does B1 bind [2]?
Answer: no binding (tested: titrated from 50 nM)

Question: Does B1 bind [3]?
Answer: no binding (tested: titrated from 50 nM)

Question: Does B1 bind [4]?
Answer: no binding (tested: titrated from 50 nM)
